First the molecules themselves.
B2: Pf MSP1-19, C-terminal fragment of the P. falciparum merozoite surface protein MSP1 (other)
chain: NISQHQCVKKQCPENSGCFRHLDEREECKCLLNYKQEGDKCVENPNPTCNENNGGCDADATCTEEDSGSSRKKITCECTKPDSYPLFDGIFCS
notes: domain: MSP1-19; Immobilised on CM5 sensor chips
B3: azurin from Pseudomonas aeruginosa (other)
chain: AECSVDIQGNDQMQFNTNAITVDKSCKQFTVNLSHPGNLPKNVMGHNWVLSTAADMQGVVTDGMASGLDKDYLKPDDSRVIAHTKLIGSGEKDSVTFDVSKLKEGEQYMFFCTFPGHSALMKGTLTLK
notes: Recombinant cupredoxin (copper protein) expressed in E. coli JM109 from pUC19-paz; also called wt azurin; wt-azurin
B4: Laz from Neisseria gonorrhoeae F62 (other)
chain: CSQEPAAPAAEATPAGEAPASEAPAAEAAPADAAEAPAAGNCAATVESNDNMQFNTKDIQVSKACKEFTITLKHTGTQPKASMGHNLVIAKAEDMDGVFKDGVGAADTDYVKPDDARVVAHTKLIGGGEESSLTLDPAKLADGDYKFACTFPGHGALMNGKVTLVD
notes: also called Neisserial Laz protein
B5: DC-SIGN (DC-specific intercellular adhesion molecule 3-grabbing nonintegrin) (receptor, UniProt Q9NNX6 62-404, looked up)
chain: KVPSSISQEQSRQDAIYQNLTQLKAAVGELSEKSKLQEIYQELTQLKAAVGELPEKSKLQEIYQELTRLKAAVGELPEKSKLQEIYQELTWLKAAVGELPEKSKMQEIYQELTRLKAAVGELPEKSKQQEIYQELTRLKAAVGELPEKSKQQEIYQELTRLKAAVGELPEKSKQQEIYQELTQLKAAVERLCHPCPWEWTFFQGNCYFMSNSQRNWHDSITACKEVGAQLVVIKSAEEQNFLQLQSSRSNRFTWMGLSDLNQEGTWQWVDGSPLLPSFKQYWNRGEPNNVGEEDCAEFSGNGWNDDKCNLAKFWICKKSAASCSRDEEQFLSPAPATPNPPPA
notes: Immobilised on a CM5 sensor chip

In test [1] the target is B2. Put plainly: SPR, MSP1-19 immobilised on CM5. (In general: Surface plasmon resonance follows binding to a sensor surface in real time, without labels.)
Test [2] deals with B4. Put plainly: SPR (Biacore X), MSP1-19 immobilised on CM5, equilibrium response fitted to Req=Rmax/(1+(Kd/C)).
In test [3] the target is B3. Described as above.
Test [4] deals with GST-Azu 88-113 (GST fused in frame to azurin amino acids 88 to 113) (Pseudomonas aeruginosa, UniProt P08515 1-218 = GST). Put plainly: SPR, MSP1-19 immobilised on CM5, GST-Azu fusion series.
Chain of GST-Azu 88-113 (GST fused in frame to azurin amino acids 88 to 113) (P08515 1-218, tags left off): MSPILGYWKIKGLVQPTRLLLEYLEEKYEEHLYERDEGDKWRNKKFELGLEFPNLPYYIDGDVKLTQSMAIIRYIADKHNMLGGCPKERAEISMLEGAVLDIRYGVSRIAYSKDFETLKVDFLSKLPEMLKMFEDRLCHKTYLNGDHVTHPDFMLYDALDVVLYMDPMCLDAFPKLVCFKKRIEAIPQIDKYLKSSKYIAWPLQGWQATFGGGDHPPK
For test [5], the target named is T1, GST-Azu 36-89 (GST fused in frame to azurin amino acids 36 to 89) (Pseudomonas aeruginosa, UniProt P08515 1-218 = GST).
T1 construct: also called pGST-azu 36-89 product
T1 sequence (P08515 1-218, tags or fused parts left off): as the sequence (P08515 1-218, tags left off) above
As to the kind of experiment: SPR, MSP1-19 immobilised on CM5.

For test [6], the target named is T2, GST-Azu 36-128 (GST fused in frame to azurin amino acids 36 to 128) (Pseudomonas aeruginosa, UniProt P08515 1-218 = GST).
T2 construct: Azurin fragment cloned into the BamHI and EcoRI sites of pGEX-5X
As to the kind of experiment: SPR, MSP1-19 immobilised on CM5.

The target in test [7] is T3, glutathione S-transferase (GST) (UniProt P08515 1-218 = GST).
T3 construct: Control protein in the SPR experiments
T3 sequence (P08515 whole entry): as the sequence (P08515 1-218, tags left off) above
As to the kind of experiment: SPR, MSP1-19 immobilised on CM5.

Test [8] has as its target T4, CD4 (UniProt P01730 26-396).
T4 construct: Bought protein; Used both immobilised on CM5 and as eluent
Put plainly: SPR, CD4 immobilised on CM5 (CD4-CM5), equilibrium response fitted to Req=Rmax/(1+(Kd/C)).

A further test concerns the target HIV-1 gp41 (HIV-1, UniProt P04578 512-684). As to the kind of experiment: SPR, azurin immobilised on CM5.
A further test deals with ICAM-1 (UniProt P05362 28-480). As to the kind of experiment: SPR, azurin immobilised on CM5.
Chain of ICAM-1 (P05362 28-480 limits assumed): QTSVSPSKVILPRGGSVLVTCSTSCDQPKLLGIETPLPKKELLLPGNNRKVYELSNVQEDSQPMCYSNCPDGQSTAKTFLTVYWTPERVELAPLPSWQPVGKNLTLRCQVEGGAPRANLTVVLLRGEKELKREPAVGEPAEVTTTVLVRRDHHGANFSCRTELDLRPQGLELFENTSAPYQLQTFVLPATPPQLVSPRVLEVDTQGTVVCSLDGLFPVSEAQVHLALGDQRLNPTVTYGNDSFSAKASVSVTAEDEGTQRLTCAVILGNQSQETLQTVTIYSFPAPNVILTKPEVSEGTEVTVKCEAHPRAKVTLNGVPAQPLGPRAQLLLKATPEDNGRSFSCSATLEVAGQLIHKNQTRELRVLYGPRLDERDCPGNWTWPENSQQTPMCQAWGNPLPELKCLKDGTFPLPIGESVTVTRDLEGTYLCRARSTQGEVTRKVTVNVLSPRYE
For a further test, the target named is T5, ICAM-2 (UniProt P13598 25-223).
T5 sequence: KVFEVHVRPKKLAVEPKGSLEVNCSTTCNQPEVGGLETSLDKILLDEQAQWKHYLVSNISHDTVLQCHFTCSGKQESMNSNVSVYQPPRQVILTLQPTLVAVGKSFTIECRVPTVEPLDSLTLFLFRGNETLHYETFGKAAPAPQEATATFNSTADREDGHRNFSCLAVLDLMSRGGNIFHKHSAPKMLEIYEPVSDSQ
As to the kind of experiment: SPR, azurin immobilised on CM5.

Test [9] addresses B5. Put plainly: SPR, DC-SIGN immobilised on CM5, proteins injected at 0-100 nM, equilibrium response fitted to Req=Rmax/(1+(Kd/C)).
Test [10] deals with T4, CD4. Put plainly: SPR, azurin immobilised on CM5 (Az-CM5), 1 mg/ml CM5 in HBS-EP running buffer.
The target of test [11] is T6, ICAM-3 (UniProt P32942 30-485, limits assumed).
T6 sequence (looked up): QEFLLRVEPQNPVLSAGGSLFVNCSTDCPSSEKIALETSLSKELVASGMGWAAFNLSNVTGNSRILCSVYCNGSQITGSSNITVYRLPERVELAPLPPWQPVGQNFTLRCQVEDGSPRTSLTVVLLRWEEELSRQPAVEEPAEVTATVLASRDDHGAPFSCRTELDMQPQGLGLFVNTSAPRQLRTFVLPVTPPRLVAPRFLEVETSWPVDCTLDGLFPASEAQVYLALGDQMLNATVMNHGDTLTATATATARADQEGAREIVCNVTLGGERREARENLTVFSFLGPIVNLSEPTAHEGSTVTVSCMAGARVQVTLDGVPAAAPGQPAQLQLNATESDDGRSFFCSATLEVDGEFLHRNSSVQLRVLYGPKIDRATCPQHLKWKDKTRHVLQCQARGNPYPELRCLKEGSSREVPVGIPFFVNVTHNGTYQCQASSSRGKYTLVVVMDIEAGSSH
As to the kind of experiment: SPR, azurin immobilised on CM5, 1 mg/ml CM5 (carboxymethyldextran) in HBS-EP running buffer.

A further test deals with T7, NCAM (UniProt P13591 20-718).
T7 construct: also called Neural Cell Adhesion Molecule
The test is described as above.

Test [12] deals with T8, Pf MSP1-42, C-terminal fragment of the P. falciparum merozoite surface protein MSP1 (Plasmodium falciparum, UniProt Q8I0U8 1327-1699).
T8 construct: domain: MSP1-42; Immobilised on CM5 sensor chips
T8 sequence: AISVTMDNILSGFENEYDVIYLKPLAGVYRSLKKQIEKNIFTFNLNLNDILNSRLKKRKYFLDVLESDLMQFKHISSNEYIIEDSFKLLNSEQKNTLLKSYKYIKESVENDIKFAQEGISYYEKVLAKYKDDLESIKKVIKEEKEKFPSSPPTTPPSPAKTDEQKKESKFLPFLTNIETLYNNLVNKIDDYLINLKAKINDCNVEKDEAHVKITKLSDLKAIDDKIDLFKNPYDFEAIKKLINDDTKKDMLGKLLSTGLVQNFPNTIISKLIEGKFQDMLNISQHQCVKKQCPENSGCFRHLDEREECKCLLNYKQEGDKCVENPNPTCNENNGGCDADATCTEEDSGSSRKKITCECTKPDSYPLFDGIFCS
As to the kind of experiment: SPR (Biacore X), MSP1-42 immobilised on CM5, equilibrium response fitted to Req=Rmax/(1+(Kd/C)).

Another test has as its target T9, HIV-1 nef (HIV-1, UniProt P04601 1-206).
T9 sequence: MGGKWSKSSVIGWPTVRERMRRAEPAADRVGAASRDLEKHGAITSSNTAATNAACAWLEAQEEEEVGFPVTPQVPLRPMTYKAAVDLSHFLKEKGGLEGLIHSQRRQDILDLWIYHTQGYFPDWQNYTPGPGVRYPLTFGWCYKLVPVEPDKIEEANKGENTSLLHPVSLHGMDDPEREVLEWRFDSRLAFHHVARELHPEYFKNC
As to the kind of experiment: SPR, azurin immobilised on CM5 (target taken from the preceding sentence).

A further test addresses HIV-1 gag (HIV-1, UniProt P04591 1-500). The test is described as above.
The target of test [13] is T6, ICAM-3. Put plainly: SPR, DC-SIGN immobilised on CM5, proteins injected at 0-100 nM, equilibrium response fitted to Req=Rmax/(1+(Kd/C)).
For test [14], the target named is B2. Put plainly: SPR (Biacore X), MSP1-19 immobilised on CM5, equilibrium response fitted to Req=Rmax/(1+(Kd/C)).

Six molecules from US20140287990A1 (published 2014) can be followed below.

B1: H.8-GST (H.8 epitope fused in the N-terminal of GST) (other)
chain: CSQEPAAPAAEATPAGEAPASEAPAAEAAPADAAEAPAA
notes: not shown: glutathione S-transferase (GST) of the commercial pGEX-5X-3 / pET29a-gst vectors
B1: the binding result in test [1] is reported as “no binding (tested: 0.05-300 nM (FIG. 7 legend))”.
With B2, the Kd in test [2] is 26.2 nM; in [3], 32.2 nM; in test [5], 20.9 nM; in test [6], 24.5 nM. For the same molecule, the binding result in test [4] was “no binding”; in test [7], “no binding (tested: 0.05-300 nM (FIG. 7 legend))”.
For B3, the Kd in the test with CD4 [8] was determined as 36.9 nM; in [9], 0.83 nM; in the test with CD4 [10] it was 25.1 nM; with ICAM-3 [11] it was 19.5 nM; with NCAM, 20 nM; in [12] it was 54.3 nM. The binding result with HIV-1 gp41, in the test with ICAM-1, with ICAM-2, with HIV-1 nef and in the test with HIV-1 gag was “no binding” each time.
The molecule B4 displayed an equilibrium dissociation constant (Kd) in test [12] of 45.6 nM.
The molecule B5 came in with an equilibrium dissociation constant (Kd) with ICAM-3 [13] of 0.93 nM.

B6: H.8-azurin (H.8 epitope of Laz fused in frame to the N-terminal part of P. aeruginosa azurin) (other)
chain: CSQEPAAPAAEATPAGEAPASEAPAAEAAPADAAEAPAAAECSVDIQGNDQMQFNTNAITVDKSCKQFTVNLSHPGNLPKNVMGHNWVLSTAADMQGVVTDGMASGLDKDYLKPDDSRVIAHTKLIGSGEKDSVTFDVSKLKEGEQYMFFCTFPGHSALMKGTLTLK
notes: also called H.8-Paz; H.8-paz
As to B6, the Kd in test [14] stood at 11.8 nM; in [12], 14.3 nM.

In general, Kd refers to the equilibrium constant for the complex coming apart. Lower therefore signals higher affinity.
